± gives the uncertainty stated by the source.
Assay: protein stability index of a GFP-peptide fusion (yeast GPS) (PSI 1-4); higher = more stable; sorted into four equal gates, so the index is relative within each strain
How it was run: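 Tiled 17-residue peptides from yeast proteins were fused downstream of GFP on a plasmid that also expresses Cherry, and the pooled library was carried in yeast. Mid-log cultures grown in leucine-free medium were sorted into four equal gates by GFP/Cherry fluorescence ratio. Plasmids from each gate were PCR-amplified and Illumina-sequenced, and reads were assigned to strains by barcodes. Each peptide's protein stability index is the sum, over gates, of the gate's read frequency multiplied by its gate number.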

ASHNVRRIPKRMRNRAL [POP1]
protein stability index (doa10∆): 2.11 ± 0.16 | protein stability index (pdr5∆): 2.34 ± 0.058 | protein stability index (ubr1∆): 2.07 ± 0.25

TKTTGKCGSVTVRLIPA [RPS2]
protein stability index (doa10∆): 1.34 ± 0.11 | protein stability index (pdr5∆): 1.7 ± 0.082 | protein stability index (san1∆): 1.35 ± 0.17 | protein stability index (ubr1∆): 1.71 ± 0.11

DQPQSSEAKRTKFSNPA [BRR2]
protein stability index (doa10∆): 3.1 ± 0.093 | protein stability index (pdr5∆): 2.65 ± 0.068 | protein stability index (san1∆): 3.24 ± 0.086 | protein stability index (ubr1∆): 3.13 ± 0.084

IYEKLKNYLKNYILNFK [CDC53]
protein stability index (doa10∆): 2.44 ± 0.063 | protein stability index (pdr5∆): 1.32 ± 0.055 | protein stability index (san1∆): 1.17 ± 0.13 | protein stability index (ubr1∆): 1.14 ± 0.061

KIALMNIPKPLNSYHIK [RGR1]
protein stability index (doa10∆): 1.65 ± 0.033 | protein stability index (pdr5∆): 1.81 ± 0.028 | protein stability index (san1∆): 1.69 ± 0.041 | protein stability index (ubr1∆): 1.83 ± 0.022

TFENTNNTEKNDVTNKN [SIR4]
protein stability index (doa10∆): 2.78 ± 0.094 | protein stability index (pdr5∆): 2.89 ± 0.068 | protein stability index (san1∆): 2.88 ± 0.059 | protein stability index (ubr1∆): 3.04 ± 0.039

ERDSYKLLASTEENKAN [YIL149C/MLP2]
protein stability index (doa10∆): 2.76 ± 0.054 | protein stability index (pdr5∆): 2.77 ± 0.047 | protein stability index (san1∆): 2.84 ± 0.046 | protein stability index (ubr1∆): 3.06 ± 0.034

KTRKTYCKGKTCRKHTQ [RPL42A]
protein stability index (doa10∆): 2.45 ± 0.068 | protein stability index (pdr5∆): 1.69 ± 0.068 | protein stability index (san1∆): 2.75 ± 0.072 | protein stability index (ubr1∆): 2.06 ± 0.043

SLSAYNLTDEGYQWGEE [PRP8]
protein stability index (doa10∆): 3.33 ± 0.22 | protein stability index (pdr5∆): 3.12 ± 0.15 | protein stability index (ubr1∆): 3.33 ± 0.19

HKNERRVLEIQTSLVRM [SKI6]
protein stability index (doa10∆): 2.99 ± 0.091 | protein stability index (pdr5∆): 2.63 ± 0.078 | protein stability index (san1∆): 2.44 ± 0.13 | protein stability index (ubr1∆): 2.96 ± 0.053

LNVKCTRNPDAPKGSTD [RPC40]
protein stability index (doa10∆): 3.19 ± 0.095 | protein stability index (pdr5∆): 3.1 ± 0.11 | protein stability index (san1∆): 3.04 ± 0.064 | protein stability index (ubr1∆): 3.06 ± 0.12

NKLGALKTNFETEWNLQ [RPB11]
protein stability index (doa10∆): 2.68 ± 0.064 | protein stability index (pdr5∆): 2.9 ± 0.077 | protein stability index (san1∆): 3.22 ± 0.12 | protein stability index (ubr1∆): 2.95 ± 0.091

EDTPANDSSATRSWRPP [RPB8]
protein stability index (doa10∆): 2.44 ± 0.24 | protein stability index (pdr5∆): 2.88 ± 0.18 | protein stability index (san1∆): 2.47 ± 0.2 | protein stability index (ubr1∆): 2.95 ± 0.084

IKEFVDDLKKDHIAIDW [DSN1]
protein stability index (doa10∆): 2.56 ± 0.08 | protein stability index (pdr5∆): 2.96 ± 0.075 | protein stability index (san1∆): 2.73 ± 0.076 | protein stability index (ubr1∆): 2.75 ± 0.059

ADEQKRSTDVWYEASTW [ARP7]
protein stability index (doa10∆): 2.36 ± 0.06 | protein stability index (pdr5∆): 2.55 ± 0.049 | protein stability index (san1∆): 2.78 ± 0.052 | protein stability index (ubr1∆): 2.73 ± 0.048

APHDSEATLLTNSNNGS [SNF5]
protein stability index (doa10∆): 3.05 ± 0.065 | protein stability index (pdr5∆): 2.85 ± 0.061 | protein stability index (san1∆): 2.91 ± 0.045 | protein stability index (ubr1∆): 2.97 ± 0.043

KREKRVFLKHSLSIKLA [RPN6]
protein stability index (doa10∆): 2.58 ± 0.083 | protein stability index (pdr5∆): 3.22 ± 0.09 | protein stability index (san1∆): 2.75 ± 0.086 | protein stability index (ubr1∆): 2.81 ± 0.094

DFDGDEMNLHVPQTEEA [RPO31]
protein stability index (doa10∆): 3.03 ± 0.071 | protein stability index (pdr5∆): 3.31 ± 0.068 | protein stability index (san1∆): 2.99 ± 0.063 | protein stability index (ubr1∆): 3.18 ± 0.051

SVFMPLIFIACNDEDKD [ECM29]
protein stability index (doa10∆): 2.99 ± 0.069 | protein stability index (pdr5∆): 2.93 ± 0.058 | protein stability index (san1∆): 2.09 ± 0.079 | protein stability index (ubr1∆): 2.55 ± 0.04

HSVQETNKISPKDFSPN [SSN2]
protein stability index (doa10∆): 3.37 ± 0.094 | protein stability index (pdr5∆): 2.68 ± 0.078 | protein stability index (san1∆): 2.93 ± 0.054 | protein stability index (ubr1∆): 3.11 ± 0.07

GMLAMASLHSKELTRIP [MED4]
protein stability index (doa10∆): 2.18 ± 0.14 | protein stability index (pdr5∆): 2.37 ± 0.12 | protein stability index (san1∆): 2.27 ± 0.2 | protein stability index (ubr1∆): 1.88 ± 0.19

NSMDMVDGMAKVPIGLI [RGR1]
protein stability index (doa10∆): 3.4 ± 0.12 | protein stability index (pdr5∆): 3.37 ± 0.072 | protein stability index (san1∆): 2.99 ± 0.15 | protein stability index (ubr1∆): 3.23 ± 0.073

MITKRILEVGALASIQT [RPN12]
protein stability index (doa10∆): 1.63 ± 0.083 | protein stability index (san1∆): 2.14 ± 0.22

RKKTPAGDWKYDRQLSS [FAS2]
protein stability index (doa10∆): 1.25 ± 0.066 | protein stability index (pdr5∆): 2.43 ± 0.092 | protein stability index (san1∆): 1.59 ± 0.19 | protein stability index (ubr1∆): 1.32 ± 0.079

RNKRAVQLPILKIIYTG [YJL039C/NUP192]
protein stability index (doa10∆): 1.6 ± 0.056 | protein stability index (pdr5∆): 1.87 ± 0.048 | protein stability index (san1∆): 1.97 ± 0.069 | protein stability index (ubr1∆): 2.02 ± 0.067

SDEEENNNNKSINKNNK [SSN2]
protein stability index (doa10∆): 2.94 ± 0.07 | protein stability index (pdr5∆): 3.02 ± 0.079 | protein stability index (san1∆): 2.72 ± 0.065 | protein stability index (ubr1∆): 3.07 ± 0.08

QVEKLGKKMEARGQSIW [RPN9]
protein stability index (doa10∆): 1.34 ± 0.15 | protein stability index (pdr5∆): 1.14 ± 0.081 | protein stability index (ubr1∆): 1.18 ± 0.22

IRNVIMSASNANDFQLT [SRB8]
protein stability index (doa10∆): 2.06 ± 0.048 | protein stability index (pdr5∆): 2.34 ± 0.058 | protein stability index (san1∆): 2.24 ± 0.087 | protein stability index (ubr1∆): 2.19 ± 0.073

IFVSILSDRANKNQDAF [ARP9]
protein stability index (doa10∆): 2.85 ± 0.057 | protein stability index (pdr5∆): 2.39 ± 0.058 | protein stability index (san1∆): 2.53 ± 0.066 | protein stability index (ubr1∆): 2.87 ± 0.056

DVLKSQANTEPENITKR [MCD1]
protein stability index (doa10∆): 3.06 ± 0.1 | protein stability index (pdr5∆): 3.02 ± 0.083 | protein stability index (san1∆): 2.98 ± 0.057 | protein stability index (ubr1∆): 3.09 ± 0.046

LNVSNTKENGDFTLPED [PRP8]
protein stability index (doa10∆): 2.98 ± 0.1 | protein stability index (pdr5∆): 3.14 ± 0.11 | protein stability index (san1∆): 3.12 ± 0.049 | protein stability index (ubr1∆): 3.21 ± 0.069

GSLWVEFCDEPSVGVKT [RPB5]
protein stability index (doa10∆): 2.84 ± 0.054 | protein stability index (pdr5∆): 2.86 ± 0.076 | protein stability index (san1∆): 3 ± 0.093 | protein stability index (ubr1∆): 2.92 ± 0.053

SYTFRSEKGLLSATQFT [FAS1]
protein stability index (doa10∆): 2.67 ± 0.052 | protein stability index (pdr5∆): 2.65 ± 0.046 | protein stability index (san1∆): 2.84 ± 0.045 | protein stability index (ubr1∆): 2.78 ± 0.036

PSLKDSSSNGGGSAKPS [RPC53]
protein stability index (doa10∆): 2.91 ± 0.18 | protein stability index (pdr5∆): 2.82 ± 0.14 | protein stability index (san1∆): 2.7 ± 0.27 | protein stability index (ubr1∆): 2.93 ± 0.15

AMKELAEKKIPLVIRRY [RPO26]
protein stability index (doa10∆): 1.28 ± 0.087 | protein stability index (pdr5∆): 1.55 ± 0.092 | protein stability index (san1∆): 1.7 ± 0.13 | protein stability index (ubr1∆): 1.73 ± 0.11

VSVEGVNVEKFNVEYFA [RPL6A]
protein stability index (doa10∆): 2.91 ± 0.069 | protein stability index (pdr5∆): 3.21 ± 0.067 | protein stability index (san1∆): 3.14 ± 0.042 | protein stability index (ubr1∆): 3.16 ± 0.054

PVYTAQWSATWIAMRRE [PRP8]
protein stability index (doa10∆): 1.68 ± 0.079 | protein stability index (pdr5∆): 1.96 ± 0.063 | protein stability index (san1∆): 1.97 ± 0.089 | protein stability index (ubr1∆): 1.9 ± 0.067

ERYFDCCTKFFTMMTSE [PCI8]
protein stability index (doa10∆): 2.38 ± 0.059 | protein stability index (pdr5∆): 2.44 ± 0.071 | protein stability index (san1∆): 2.35 ± 0.07 | protein stability index (ubr1∆): 2.29 ± 0.045

PVRALIVQAKEPNLAAQ [ECM29]
protein stability index (doa10∆): 2.14 ± 0.11 | protein stability index (pdr5∆): 2.6 ± 0.08 | protein stability index (san1∆): 2.51 ± 0.092 | protein stability index (ubr1∆): 2.64 ± 0.059

TIPLGGSVHKLPYAIAG [PRE3]
protein stability index (doa10∆): 2.97 ± 0.066 | protein stability index (pdr5∆): 2.91 ± 0.085 | protein stability index (san1∆): 2.84 ± 0.089 | protein stability index (ubr1∆): 3.08 ± 0.045

VQSQVDSSSVSEDSAVF [FAS1]
protein stability index (doa10∆): 3.11 ± 0.072 | protein stability index (pdr5∆): 3.33 ± 0.08 | protein stability index (san1∆): 3.12 ± 0.047 | protein stability index (ubr1∆): 3.29 ± 0.049

AIHIFESYYNWKYNNFL [YML103C/NUP188]
protein stability index (doa10∆): 2.04 ± 0.13 | protein stability index (pdr5∆): 1.6 ± 0.1 | protein stability index (san1∆): 1.94 ± 0.24 | protein stability index (ubr1∆): 2.62 ± 0.17

QINIMPSLKAHFTEIKL [SIR3]
protein stability index (doa10∆): 2.18 ± 0.056 | protein stability index (pdr5∆): 2.1 ± 0.054 | protein stability index (san1∆): 2.29 ± 0.057 | protein stability index (ubr1∆): 2.4 ± 0.045

LEANGRSLEKVNNSVSK [SSN2]
protein stability index (doa10∆): 3.48 ± 0.15 | protein stability index (pdr5∆): 3.47 ± 0.12 | protein stability index (san1∆): 3.18 ± 0.11 | protein stability index (ubr1∆): 3.37 ± 0.1

VYNNSKDEYLAQLDGRI [NSL1]
protein stability index (doa10∆): 3.33 ± 0.073 | protein stability index (pdr5∆): 3.26 ± 0.049 | protein stability index (san1∆): 3.17 ± 0.049 | protein stability index (ubr1∆): 3.36 ± 0.045

ITSLYALIRRDFTLIPR [CDC53]
protein stability index (doa10∆): 2.95 ± 0.08 | protein stability index (pdr5∆): 1.28 ± 0.071 | protein stability index (san1∆): 1.18 ± 0.15 | protein stability index (ubr1∆): 1.41 ± 0.031

NLVKEKEALQNNIFKEF [SMC1]
protein stability index (doa10∆): 3.51 ± 0.12 | protein stability index (pdr5∆): 3.06 ± 0.12 | protein stability index (san1∆): 2.99 ± 0.12

SPDKIGTFTADYSKPNL [SSN2]
protein stability index (doa10∆): 2.81 ± 0.094 | protein stability index (pdr5∆): 3 ± 0.066 | protein stability index (san1∆): 2.65 ± 0.08 | protein stability index (ubr1∆): 2.92 ± 0.064

TKYSAKYAQDGAGIERE [RPL3]
protein stability index (doa10∆): 3.04 ± 0.15 | protein stability index (pdr5∆): 3.48 ± 0.22 | protein stability index (san1∆): 3.24 ± 0.27 | protein stability index (ubr1∆): 3.19 ± 0.15

QFEVSDDEKNDKQARKQ [SNF2]
protein stability index (doa10∆): 3.38 ± 0.083 | protein stability index (pdr5∆): 3.4 ± 0.12 | protein stability index (san1∆): 3.06 ± 0.069 | protein stability index (ubr1∆): 3.29 ± 0.077

TFQRVCQYMVACVPLLP [RPN1]
protein stability index (doa10∆): 2.5 ± 0.06 | protein stability index (pdr5∆): 2.42 ± 0.071 | protein stability index (san1∆): 1.86 ± 0.14 | protein stability index (ubr1∆): 2.53 ± 0.1

DYNDVEVNSKKKNKRAL [BRR2]
protein stability index (doa10∆): 3.07 ± 0.098 | protein stability index (pdr5∆): 2.95 ± 0.07 | protein stability index (san1∆): 2.78 ± 0.12 | protein stability index (ubr1∆): 3.02 ± 0.061

— the supplement of paper PMC9732359
